The source of these data is article PMC2718843.

Where only a bound is given, the exact number is not on record here.

For assay [1], the target named is gp120 from D1/85.16 cl.23 (HIV-1).
The target of assay [2] is gp120 from CC101.19 cl.7 (HIV-1).
Assay [3] has as its target gp120 from CC1/85 cl.6 (HIV-1).
The target in assay [4] is gp120 from CC1/85 cl.7 (HIV-1).

As for sCD4 (domain or fragment), the IC50 for inhibition of replication of the clonal virus in PBMC (p24 antigen); inhibits gp120-CD4 binding in assay [1] is 10 µg/mL; in assay [2], 0.1 µg/mL; in assay [3], over 25 µg/mL; in assay [4], 0.1 µg/mL.
